# Test results: patent publication US20200030452A1, “Process for the Manufacture of a Tumor-Vasculature Targeting Antitumor Agent” (priority 2016, published 2020)
# Residues, ends and D or L forms follow the SMILES beside them. *: point of attachment. X1 = CCc1c2c(nc3ccc(OC(=O)[C@H]4CC[C@H](CNC(=O)[C@H]5CC[C@H](CN6C(=O)CC(*)C6=O)CC5)CC4)cc13)-c1cc3c(c(=O)n1C2)COC(=O)[C@]3(O)CC
# Legend:
# Type in all cases: in vivo
# tumors = assay: Treatment of mice with tumors using IF7-SN38
# Excerpt: (§1) Therefore, using our targeted therapy, a small amount of IF7-SN38 is required to be injected to patients. The efficiency of IF7-SN38 is unprecedented in mice, in particular for the brain malignancies. […] It is believed that IF7-SN38 would work far better than PEGylated SN38 by targeting malignant tumors including brain malignancy. The low dosage, specificity, and easily degrading nature of IF7-SN38 in targeted cells to release SN38, are the major factors for the superiority of our drug to PEG-SN38.
# [1] = test system: human colon HCT116 tumors; assay: IF7-SN38 injected intravenously into nude mice carrying human colon HCT116 tumors; conditions: intravenous, low dosages
# [2] = Crossing of the blood brain barrier; conditions: by passive transcytosis mechanism
# Excerpt: as §1
smiles,measurement,setting,value
CCc1c2c(nc3ccc(OC(=O)[C@H]4CC[C@H](CNC(=O)[C@H]5CC[C@H](CN6C(=O)CC(SC[C@H](NC(=O)[C@H](CCCNC(=N)N)NC(=O)[C@H](CCC(N)=O)NC(=O)[C@H](Cc7c[nH]c8ccccc78)NC(=O)[C@H](CC(C)C)NC(=O)[C@H](CC(C)C)NC(=O)[C@H](Cc7ccccc7)NC(=O)[C@@H](N)[C@@H](C)CC)C(=O)N[C@@H](CCCNC(=N)N)C(=O)N[C@@H](CCCNC(=N)N)C(=O)O)C6=O)CC5)CC4)cc13)-c1cc3c(c(=O)n1C2)COC(=O)[C@]3(O)CC (stereo partly drawn) [IF7-SN38] (H-IFLLWQRC(X1)RR-OH; N-terminus and C-terminus assumed),side effects in the treated mice,tumors,without producing any side effects
same,side effects,[1],no apparent side effects
same,blood brain barrier,[2],overcomes blood brain barrier
